Results reported in IntAct's records for PubMed 29039417.

B1: Protein PTHB1 (Homo sapiens), Q3SYG4 (parent)
chain: MSLFKARDWWSTILGDKEEFDQGCLCLANVDNSGNGQDKIIVGSFMGYLRIFSPHPAKTGDGAQAEDLLLEVDLRDPVLQVEVGKFVSGTEMLHLAVLHSRKLCVYSVSGTLGNVEHGNQCQMKLMYEHNLQRTACNMTYGSFGGVKGRDLICIQSMDGMLMVFEQESYAFGRFLPGFLLPGPLAYSSRTDSFLTVSSCQQVESYKYQVLAFATDADKRQETEQQKLGSGKRLVVDWTLNIGEQALDICIVSFNQSASSVFVLGERNFFCLKDNGQIRFMKKLDWSPSCFLPYCSVSEGTINTLIGNHNNMLHIYQDVTLKWATQLPHIPVAVRVGCLHDLKGVIVTLSDDGHLQCSYLGTDPSLFQAPNVQSRELNYDELDVEMKELQKIIKDVNKSQGVWPMTEREDDLNVSVVVSPNFDSVSQATDVEVGTDLVPSVTVKVTLQNRVILQKAKLSVYVQPPLELTCDQFTFEFMTPDLTRTVSFSVYLKRSYTPSELEGNAVVSYSRPTDRNPDGIPRVIQCKFRLPLKLICLPGQPSKTASHKITIDTNKSPVSLLSLFPGFASQSDDDQVNVMGFHFLGGARITVLASKTSQRYRIQSEQFEDLWLITNELILRLQEYFEKQGVKDFACSFSGSIPLQEYFELIDHHFELRINGEKLEELLSERAVQFRAIQRRLLARFKDKTPAPLQHLDTLLDGTYKQVIALADAVEENQGNLFQSFTRLKSATHLVILLIALWQKLSADQVAILEAAFLPLQEDTQELGWEETVDAAISHLLKTCLSKSSKEQALNLNSQLNIPKDTSQLKKHITLLCDRLSKGGRLCLSTDAAAPQTMVMPGGCTTIPESDLEERSVEQDSTELFTNHRHLTAETPRPEVSPLQGVSE
partner: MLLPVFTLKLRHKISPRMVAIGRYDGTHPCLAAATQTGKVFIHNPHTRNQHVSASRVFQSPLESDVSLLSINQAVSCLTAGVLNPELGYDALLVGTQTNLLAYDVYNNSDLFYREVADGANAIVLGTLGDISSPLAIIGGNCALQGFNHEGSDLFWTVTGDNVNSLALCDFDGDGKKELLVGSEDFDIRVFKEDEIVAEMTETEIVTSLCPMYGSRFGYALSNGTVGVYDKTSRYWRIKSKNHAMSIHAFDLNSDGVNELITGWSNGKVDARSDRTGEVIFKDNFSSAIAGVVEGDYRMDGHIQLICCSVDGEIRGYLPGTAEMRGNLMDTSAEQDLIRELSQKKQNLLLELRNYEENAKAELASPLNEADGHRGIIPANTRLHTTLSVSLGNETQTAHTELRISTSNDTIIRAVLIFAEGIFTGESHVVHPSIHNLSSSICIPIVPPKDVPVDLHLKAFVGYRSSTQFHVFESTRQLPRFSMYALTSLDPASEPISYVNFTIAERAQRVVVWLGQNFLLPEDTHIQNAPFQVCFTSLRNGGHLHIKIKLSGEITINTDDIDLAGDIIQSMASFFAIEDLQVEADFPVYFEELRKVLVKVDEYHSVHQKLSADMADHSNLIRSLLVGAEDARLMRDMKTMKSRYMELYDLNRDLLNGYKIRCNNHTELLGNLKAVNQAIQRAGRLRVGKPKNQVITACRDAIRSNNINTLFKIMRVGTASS

Variants of: B1
Conditions: with bbs2_human BBS2, Q9BXC9

effect of a mutation on the interaction | Variant
with no effect | R854A
with no effect | R854E
with no effect | R854K
with no effect | L851E
with no effect | L851A
with no effect | L851K
with no effect | E852A
with no effect | E852K
with no effect | E857A
with no effect | E857K
with no effect | T861K
with no effect | T861A
with no effect | T861E
with no effect | L863E
with no effect | L863A
with no effect | L863K
with no effect | T865E
with no effect | T865A
with no effect | T865K
with no effect | V856A

effect of a mutation on the interaction | Variant
with no effect | V856K
with no effect | V856E
with no effect | T845K
with no effect | E862K
with no effect | E862A
with no effect | F864A
with no effect | F864E
with no effect | F864K
with no effect | D850K
with no effect | D850A
with no effect | D850E
with no effect | I846K
with no effect | I846A
with no effect | I846E
with no effect | Q858K
with no effect | Q858A
with no effect | Q858E
with no effect | E848A
with no effect | E848K
with no effect | S860A

effect of a mutation on the interaction | Variant
with no effect | S860E
with no effect | S860K
with no effect | S849K
with no effect | S849E
with no effect | S849A
with no effect | S855E
with no effect | S855A
with no effect | S855K
disrupting interaction strength | P847T
with no effect | P847A
with no effect | P847E
with no effect | P847K
with no effect | D859K
with no effect | D859E
with no effect | D859A
with no effect | E853K
with no effect | E853A
with no effect | N866E
with no effect | N866A
with no effect | N866K

Second part, the variant before the results:

Variant | effect of a mutation on the interaction
P840E | with no effect
P840A | disrupting interaction strength
P840K | with no effect
G842A | with no effect
G842K | with no effect
G842E | with no effect
Q807A | with no effect
Q807E | with no effect
Q807K | with no effect
L825K | with no effect
L825E | with no effect
L825A | with no effect
L808E | disrupting interaction strength
L808K | with no effect
L808A | with no effect
A833E | with no effect
A833S | disrupting interaction strength
A833K | with no effect
K821A | with no effect
K821E | with no effect
H811A | with no effect
H811E | with no effect
H811K | with no effect
D830A | with no effect
D830K | with no effect

Variant | effect of a mutation on the interaction
D830E | with no effect
S820K | with no effect
S820E | with no effect
S820A | with no effect
G823K | with no effect
G823E | with no effect
G823A | with no effect
D817K | with no effect
D817E | with no effect
D817A | with no effect
T805K | with no effect
T805I | disrupting interaction strength
C816A | with no effect
C816K | with no effect
C816E | with no effect
T845A | with no effect
T845E | with no effect
A832E | with no effect
A832K | with no effect
K809E | with no effect
K809A | with no effect
L814E | with no effect
L814K | with no effect
L814A | with no effect
T829K | with no effect

Variant | effect of a mutation on the interaction
T829E | with no effect
T829A | with no effect
K810A | with no effect
K810E | with no effect
L827E | with no effect
L827K | with no effect
L827A | disrupting interaction strength
S828A | with no effect
S828E | with no effect
S828K | with no effect
T844K | with no effect
T844E | with no effect
T844A | with no effect
Q835A | with no effect
Q835E | with no effect
Q835K | with no effect
Q835M | disrupting interaction strength
M839K | disrupting interaction strength
M839E | with no effect
M839A | with no effect
C843E | with no effect
C843K | with no effect
C843A | with no effect
R824E | with no effect
R824A | with no effect

Variant | effect of a mutation on the interaction
R824K | with no effect
R824W | disrupting interaction strength
M837E | with no effect
M837A | with no effect
M837K | disrupting interaction strength
A831K | with no effect
A831E | with no effect
C826A | with no effect
C826E | with no effect
C826K | with no effect
T836A | with no effect
T836E | with no effect
T836K | with no effect
T813A | with no effect
T813K | with no effect
T813C | disrupting interaction strength
T813E | with no effect
L815A | with no effect
L815F | disrupting interaction strength
L815K | with no effect
L815E | with no effect
I812K | with no effect
I812E | with no effect
I812A | with no effect
S806A | with no effect

Variant | effect of a mutation on the interaction
S806E | with no effect
S806K | with no effect
V838E | with no effect
V838A | disrupting interaction strength
V838K | with no effect
P834E | with no effect
P834K | with no effect
P834A | with no effect
G841E | with no effect
G841A | with no effect
G841K | with no effect
G822A | with no effect
G822E | with no effect
G822K | with no effect
G822R | disrupting interaction strength
R818E | with no effect
R818K | with no effect
R818A | with no effect
L819K | with no effect
L819A | with no effect
L819E | with no effect
